# Results taken from the FLAb antibody collection (doi:10.7554/elife.23156).
# B1: scFv; the commonest letter at each place (parent)
# chain 1: EVKLDETGGGLVQPGRPMKLSCVASGFTFSDYWMNWVRQSPEKGLEWVAQIRNKPYNYETYYSDSVKGRFTISRDDSKSSVYLQMNNLRVEDMGIYYCTGSYYGMDYWGQGTSVTVS
# chain 2: DVVMTQTPLSLPVSLGDQASISCRSSQSLVHSNGNTYLRWYLQKPGQSPKVLIYKVSNRFSGVPDRFSGSGSGTDFTLKISRVEAEDLGVYFCSQSTHVPWTFGGGTKLEIK
# Legend:
# fluorescein = variants of: B1; experiment: Kd (Tite-Seq); details: with fluorescein; format: scFv 4-4-20, heavy + light
# [1] = variants of: B1; experiment: yeast surface expression (ratio to wild type); higher = more expressed; details: format: scFv 4-4-20, heavy + light
Variant,Kd (fluorescein) [µM],yeast surface expression [1]
chain 1 F29V D31E,1.47,0.753
chain 1 F29S D31W,≥ 10,0.756
chain 1 F29Y V37I,0.00194,0.9
chain 1 G100P M105A,≥ 10,0.56
chain 1 N35I W36L,≥ 10,2.65
chain 1 D31R,0.00204,0.736
chain 1 M34L N35I,≥ 10,0.531
chain 1 S30F M34E,≤ 0.000316,0.0981
chain 1 D106W W108S,≥ 10,0.325
chain 1 G104R D106P Y107A,≥ 10,0.359
chain 1 D31H W33P,≥ 10,0.631
chain 1 M105G W108N,≥ 10,0.415
chain 1 D106C,2.17,0.955
chain 1 M34E,≥ 10,0.617
chain 1 F29Q,0.0119,0.989
chain 1 F29M,0.00251,1.21
chain 1 F29K,≥ 10,0.849
chain 1 G100D G104A,≥ 10,0.116
chain 1 G100Q W108R,≥ 10,0.232
chain 1 S30C W36G,0.021,0.208
chain 1 D31P W33F,≥ 10,0.78
chain 1 G100H D106F,9.5,0.752

Variant,Kd (fluorescein) [µM],yeast surface expression [1]
chain 1 G100H D106C,≥ 10,0.222
chain 1 G100V S101H,≥ 10,0.872
chain 1 G104A M105P,≥ 10,0.375
chain 1 N35S V37L,≥ 10,0.839
chain 1 G100E G104I,≥ 10,0.281
chain 1 M34T V37C,0.02,0.697
chain 1 D31I W36E,≥ 10,0.663
chain 1 F29D S30K,≥ 10,0.968
chain 1 M105D Y107D,≥ 10,0.442
chain 1 M34Y W36V,≥ 10,0.522
chain 1 G100R M105Y W108P,≥ 10,0.298
chain 1 G100W Y102S,0.00606,0.723
chain 1 D31E M34P,≥ 10,0.406
chain 1 S30H D31K,0.00468,0.668
chain 1 N35S,≥ 10,1.04
chain 1 F29Q Y32L,≥ 10,0.881
chain 1 G104E G109C,≥ 10,0.21
chain 1 G100M M105F,≥ 10,0.769
chain 1 G100D D106G G109S,≥ 10,0.224
chain 1 M34P V37L,≥ 10,1.01
chain 1 F29I W33D M34W,≥ 10,0.719
chain 1 F29T D31P,≥ 10,1.06

Variant,Kd (fluorescein) [µM],yeast surface expression [1]
chain 1 N35Y W36Y V37D,≥ 10,1.04
chain 1 G100D,≥ 10,0.453
chain 1 N35K W36F,≥ 10,0.453
chain 1 S30C W33I,≥ 10,0.877
chain 1 S30E W33Q,≥ 10,0.96
chain 1 D31K W33R V37C,≥ 10,0.501
chain 1 G100N D106I,≥ 10,0.203
chain 1 G100M S101E W108V,≥ 10,0.515
chain 1 D31G N35A,≥ 10,0.664
chain 1 D106W G109D,≥ 10,0.186
chain 1 M34S W36A,≥ 10,0.437
chain 1 F29M N35W,≥ 10,0.403
chain 1 M34C V37I,0.00708,0.76
chain 1 F29K M34F,0.0233,0.631
chain 1 F29K M34Y,0.00708,0.801
chain 1 G100W Y102N D106L,≥ 10,0.286
chain 1 M105K,0.00546,1.02
chain 1 M105I,0.0335,0.914
chain 1 M105T,≥ 10,1
chain 1 M105F,0.945,0.745
chain 1 G100M S101I G104T,≥ 10,0.359
chain 1 G109Q,≥ 10,0.391

Variant,Kd (fluorescein) [µM],yeast surface expression [1]
chain 1 M34D N35Q,≥ 10,1.78
chain 1 G100S M105R,0.311,0.929
chain 1 G104L W108R,≥ 10,0.278
chain 1 M105A W108L,0.00184,0.505
chain 1 F29A M34G,≥ 10,0.656
chain 1 G100Y M105R,≥ 10,0.513
chain 1 G100S Y103L W108N,≥ 10,0.26
chain 1 F29W S30V N35H,≥ 10,0.547
chain 1 G100Y W108L,≥ 10,0.393
chain 1 G100I G109I,≥ 10,0.25
chain 1 D31V N35C,≥ 10,0.424
chain 1 M105Y W108R,≥ 10,0.286
chain 1 G100Y Y103C,≥ 10,0.567
chain 1 F29I Y32K,0.00226,1.07
chain 1 F29M S30H Y32S,≥ 10,0.982
chain 1 G100I Y103E,≥ 10,0.879
chain 1 G104R M105R,≥ 10,0.672
chain 1 D31M W36A,≥ 10,1.72
chain 1 N35I V37M,≥ 10,0.626
chain 1 M34R V37W,0.0353,3.88
chain 1 G100M G109M,≥ 10,0.274
chain 1 M105F Y107S G109S,≥ 10,0.81

Variant,Kd (fluorescein) [µM],yeast surface expression [1]
chain 1 M34P N35L,≥ 10,0.779
chain 1 M105Q G109M,≥ 10,0.216
chain 1 G100H Y103Q G109A,≥ 10,0.293
chain 1 S30G M34R,0.00199,
chain 1 M105T Y107D,≥ 10,0.467
chain 1 M105D D106T,≥ 10,0.588
chain 1 M105D D106C,≥ 10,0.616
chain 1 M105E D106Y,≥ 10,0.534
chain 1 F29A W36A,≥ 10,0.822
chain 1 D31L Y32H N35V,≥ 10,0.343
chain 1 F29Y M34Q V37M,4.37,0.485
chain 1 G104N Y107A,≥ 10,0.74
chain 1 F29S M34S,≥ 10,0.543
chain 1 D31Q W33T,≥ 10,0.793
chain 1 G100V G104D,≥ 10,0.777
chain 1 G100P S101T,≥ 10,0.486
chain 1 D31H N35G,0.00468,0.736
chain 1 M105S D106E,≥ 10,1.32
chain 1 D31S Y32F,0.018,0.876
chain 1 M105I W108V,0.000724,0.782

# The next lines start with results.
Kd (fluorescein) [µM],Variant,yeast surface expression [1]
≥ 10,chain 1 W33M V37L,0.553
0.00746,chain 1 W36F V37N,0.509
≥ 10,chain 1 Y103K G104I,0.711
≥ 10,chain 1 W36D V37M,1.25
≥ 10,chain 1 S101N W108D,0.399
≥ 10,chain 1 T28Q N35R,0.537
0.00179,chain 1 T28C,0.965
0.0038,chain 1 T28W,0.893
0.000763,chain 1 T28Q,1.06
0.522,chain 1 Y102V M105N,1.01
≥ 10,chain 1 S30I M34P,0.36
≥ 10,chain 1 S101W Y103A,0.685
≥ 10,chain 1 Y103H W108R,0.35
≥ 10,chain 1 T28V F29D,0.952
0.000989,chain 1 T28V S30Q,1.1
≥ 10,chain 1 W108N G109P,0.396
≥ 10,chain 1 Y32K W33E,0.552
≥ 10,chain 1 Y32T V37E,0.222
0.0132,chain 1 T28R Y32G,0.959
≥ 10,chain 1 Y103P D106T W108C,0.258
≥ 10,chain 1 Y103S D106H,0.542
≥ 10,chain 1 Y32M W36M,0.672
≥ 10,chain 1 T28C D31F M34A,0.672
≥ 10,chain 1 Y32K M34C,0.91
≥ 10,chain 1 S101F G104L,0.778

Kd (fluorescein) [µM],Variant,yeast surface expression [1]
≥ 10,chain 1 W108Q G109Q,0.278
≥ 10,chain 1 T28C Y32P,0.707
≥ 10,chain 1 W108S G109R,0.307
≥ 10,chain 1 S30K W36E,1.31
≥ 10,chain 1 S30Q N35K,0.304
≥ 10,chain 1 S101W G104W,0.254
≥ 10,chain 1 S101M,0.591
2.23,chain 1 T28I Y32S,0.842
≥ 10,chain 1 S30V Y32D,0.745
≥ 10,chain 1 S30I D31T W36P,0.928
≥ 10,chain 1 S101C G104N G109R,0.263
≥ 10,chain 1 Y102Q Y107C,0.353
≥ 10,chain 1 S101V D106I Y107C,0.165
0.00166,chain 1 T28I D31F,0.526
0.000763,chain 1 Y103F,1.06
≥ 10,chain 1 T28A D31C N35A,0.411
0.195,chain 1 Y102H Y103E,1.17
≥ 10,chain 1 Y32Q W36N V37K,0.902
≥ 10,chain 1 T28C F29P,0.637
≥ 10,chain 1 Y103N G109P,0.519
≥ 10,chain 1 Y32L M34T W36I,0.622
≥ 10,chain 1 S101R D106L,0.0991
≥ 10,chain 1 T28R V37P,1.99
0.0592,chain 1 S30T V37P,
8.56,chain 1 Y102R M105A,1.1

Kd (fluorescein) [µM],Variant,yeast surface expression [1]
0.972,chain 1 Y32M,1.03
≥ 10,chain 1 Y102Q G104L W108S,0.348
≥ 10,chain 1 S101F M105L,0.483
≥ 10,chain 1 Y102I W108N,0.316
≥ 10,chain 1 Y102H D106G,0.856
≥ 10,chain 1 W33Y M34I,0.771
≥ 10,chain 1 W108R,0.455
0.0507,chain 1 T28F D31A,0.637
≤ 0.000316,chain 1 T28P S30K,1.02
≥ 10,chain 1 S101C M105I,0.826
≥ 10,chain 1 T28R D31L W33I,0.441
≥ 10,chain 1 T28N W36K,0.56
≥ 10,chain 1 Y32W W33P,0.825
≥ 10,chain 1 Y32A M34E V37C,0.299
≥ 10,chain 1 Y102L D106R,0.344
≥ 10,chain 1 W36K,0.794
≥ 10,chain 1 W36A,0.44
≥ 10,chain 1 W36N,0.978
0.00532,chain 1 W36Y,0.923
≥ 10,chain 1 Y103P Y107D,0.617
≥ 10,chain 1 S101L M105F,0.521
≥ 10,chain 1 Y107N G109K,0.306
≥ 10,chain 1 S101D W108A,0.443
≥ 10,chain 1 T28R W33L,0.935
≥ 10,chain 1 T28A W33S,0.826

Kd (fluorescein) [µM],Variant,yeast surface expression [1]
≥ 10,chain 1 W33E N35G,1.05
≥ 10,chain 1 S101L Y102V,0.401
≥ 10,chain 1 S101N G104N,0.806
0.00122,chain 1 V37D,1.05
≥ 10,chain 1 T28E S30W Y32D,0.574
0.00444,chain 1 T28W S30A,0.868
≥ 10,chain 1 T28L W33S,0.867
0.00251,chain 1 Y102S M105K,1.02
≥ 10,chain 1 S30W W36D,0.104
≥ 10,chain 1 S30Y M34H,0.38
0.712,chain 1 Y103Q W108A,0.644
≥ 10,chain 1 S101L Y103S M105A,0.713
≥ 10,chain 1 S101Y W108V,0.397
≥ 10,chain 1 Y102M Y103F D106Y,0.388
0.021,chain 1 Y102V W108A,0.315
≥ 10,chain 1 Y103I D106L,0.354
≥ 10,chain 1 Y102E D106S,1.01
≥ 10,chain 1 S101N M105P,0.537
≥ 10,chain 1 Y32E N35G,1
0.00638,chain 1 T28A D31W,0.862
≥ 10,chain 1 S101R G104P,0.361
≥ 10,chain 1 S101R W108L,0.22
≥ 10,chain 1 S101Y M105T,0.44
≥ 10,chain 1 Y102G M105C,0.828
≥ 10,chain 1 S101E G104K M105C,0.346

Kd (fluorescein) [µM],Variant,yeast surface expression [1]
0.00638,chain 1 S30L,0.801
0.000938,chain 1 S30Q,1.12
≥ 10,chain 1 W33E V37L,0.674
≥ 10,chain 1 W33E V37Y,1
≥ 10,chain 1 W33E V37C,0.709
≥ 10,chain 1 Y32G N35V,0.513
≥ 10,chain 1 Y102F M105C W108T,0.419
≥ 10,chain 1 T28Y F29W,0.672
≥ 10,chain 1 S101Y Y102G,0.796
≤ 0.000316,chain 1 T28D V37C,0.886
0.00135,chain 1 T28K S30I,0.889
≥ 10,chain 1 Y32H V37T,0.874
≥ 10,chain 1 Y32H V37Q,0.372
0.0252,chain 1 Y102R,1.06
≥ 10,chain 1 Y102E,0.889
0.00361,chain 1 Y102W,0.638
0.000869,chain 1 Y102S,1.14
5.1,chain 1 Y102E Y103A,0.993
≥ 10,chain 1 S101V Y102E,0.509
≥ 10,chain 1 W33T,1.02
≥ 10,chain 1 W33R,0.877
0.00122,chain 1 T28H S30G,1.04
0.00966,chain 1 T28V M34Y,0.889
≥ 10,chain 1 S101G G104Y,0.901
